Reference: paper PMC9953321

Biological target: eRF1 (not stated (S. cerevisiae or human protein prepared)) (UniProt P12385)
Sequence of UniProt P12385 (P12385 whole entry): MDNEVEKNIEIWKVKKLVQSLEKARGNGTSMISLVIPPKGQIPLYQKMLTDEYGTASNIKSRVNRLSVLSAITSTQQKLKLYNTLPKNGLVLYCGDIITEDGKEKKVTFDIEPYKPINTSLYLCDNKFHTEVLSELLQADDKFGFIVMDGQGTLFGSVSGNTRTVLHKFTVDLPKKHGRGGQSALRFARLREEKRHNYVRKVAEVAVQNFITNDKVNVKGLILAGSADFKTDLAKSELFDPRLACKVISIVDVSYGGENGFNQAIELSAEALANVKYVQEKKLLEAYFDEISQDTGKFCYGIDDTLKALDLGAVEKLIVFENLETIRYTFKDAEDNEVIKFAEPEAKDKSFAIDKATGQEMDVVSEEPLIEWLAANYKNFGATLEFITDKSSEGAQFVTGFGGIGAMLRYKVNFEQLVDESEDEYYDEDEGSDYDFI

Sequence of eRF3 (P05453 whole entry): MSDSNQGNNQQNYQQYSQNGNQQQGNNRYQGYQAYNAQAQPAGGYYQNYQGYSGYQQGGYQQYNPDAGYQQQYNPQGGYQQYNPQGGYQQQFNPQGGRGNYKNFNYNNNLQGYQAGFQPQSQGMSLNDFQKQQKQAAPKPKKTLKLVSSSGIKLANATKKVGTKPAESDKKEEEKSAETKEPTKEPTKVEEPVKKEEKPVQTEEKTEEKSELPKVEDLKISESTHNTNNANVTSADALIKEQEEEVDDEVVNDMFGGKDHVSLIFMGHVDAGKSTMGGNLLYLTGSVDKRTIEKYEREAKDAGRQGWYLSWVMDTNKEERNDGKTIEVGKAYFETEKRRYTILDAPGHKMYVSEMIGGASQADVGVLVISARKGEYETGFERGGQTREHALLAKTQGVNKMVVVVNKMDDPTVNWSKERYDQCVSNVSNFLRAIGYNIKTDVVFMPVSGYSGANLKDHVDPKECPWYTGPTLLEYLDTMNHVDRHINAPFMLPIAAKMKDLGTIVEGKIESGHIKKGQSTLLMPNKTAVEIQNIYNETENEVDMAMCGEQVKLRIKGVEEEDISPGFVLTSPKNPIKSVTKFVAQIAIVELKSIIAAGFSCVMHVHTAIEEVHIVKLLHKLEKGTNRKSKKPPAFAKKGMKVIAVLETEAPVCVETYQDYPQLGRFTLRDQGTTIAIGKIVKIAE

Work on “eRF3 (from UniProt P05453 1-685) (natural protein)” yielded a formation of RFC at constant 0.8 µM eRF3 with 0.01 to 0.4 µM eRF1 ('early experiments' of the termination assay; how it was determined is not told) of over 90%.
